Consider six substances from patent US10450368.

The target of test [1] is CH505.M10D8gp120. Briefly: direct-binding ELISA. A general note: In an ELISA, binding on a coated surface is turned into a signal by an enzyme label.
For test [2], the target named is CH505.M11D8gp120/293F. Briefly: direct-binding ELISA.
The target in test [3] is CH505.M19D8gp120. The test is described as follows: direct-binding ELISA.
Test [4] concerns the target CH505.M21D8gp120/293F. The test is described as follows: direct-binding ELISA.
Test [5] deals with CH505.M5D8gp120293F. The test is described as follows: direct-binding ELISA.
In test [6] the target is CH505.M7D8gp120/293F. The test is described as follows: direct-binding ELISA.
Test [7] addresses CH505.M9D8gp120/293F. Briefly: direct-binding ELISA.
Test [8] has as its target CH505.TF mutant gp120 M20 (HIV-1). Briefly: direct-binding ELISA.
Test [9] concerns the target CH505.TF mutant gp120 M6 (HIV-1). Briefly: direct-binding ELISA.
Test [10] has as its target CH505.TF mutant gp120 M8 (HIV-1). Briefly: direct-binding ELISA.
In test [11] the target is CH0505_CON D7gp120/293i. Briefly: ELISA.
The target in test [12] is CH505.w30.12D8gp120. The test is described as follows: ELISA.
Test [13] has as its target CH505w020.14D8gp120. Briefly: ELISA.
Test [14] concerns the target CH505w030.20D8gp120/293F. Briefly: ELISA.
For test [15], the target named is CH505w136.B18D8gp120. Briefly: ELISA.
For test [16], the target named is HIV-1 CH505 transmitted/founder gp120 Env (HIV-1). Briefly: SPR, antibody captured on anti-human Ig Fc, gp120 injected. A general note: In SPR one partner is held on a chip, and binding of the other changes the refractive index at the surface.
Test [17] addresses CH505.M10D8gp120. Briefly: ELISA.
Test [18] concerns the target CH505.M11D8gp120/293F. The test is described as follows: ELISA.
The target in test [19] is CH505.M19D8gp120. The test is described as follows: ELISA.
The target of test [20] is CH505.M21D8gp120/293F. The test is described as follows: ELISA.
The target in test [21] is CH505.M5D8gp120293F. The test is described as follows: ELISA.
Test [22] concerns the target CH505.M7D8gp120/293F. Briefly: ELISA.
Test [23] deals with CH505.M9D8gp120/293F. The test is described as follows: ELISA.
Test [24] deals with CH505.TF mutant gp120 M20 (HIV-1). Briefly: ELISA.
The target of test [25] is CH505.TF mutant gp120 M6 (HIV-1). The test is described as follows: ELISA.
Test [26] has as its target CH505.TF mutant gp120 M8 (HIV-1). Briefly: ELISA.
Test [27] has as its target Centromere B (UniProt P07199). Briefly: AtheNA, Ab 25 ug/ml.
Test [28] addresses Histones. The test is described as follows: AtheNA, Ab 25 ug/ml.
Test [29] addresses Jo-1 (UniProt P12081). The test is described as follows: AtheNA, Ab 25 ug/ml.
In test [30] the target is RNP (ribonucleoprotein). Briefly: AtheNA, Ab 25 ug/ml.
For test [31], the target named is SSA. The test is described as follows: AtheNA, Ab 25 ug/ml.
Test [32] concerns the target SSB (UniProt P05455). Briefly: AtheNA, Ab 25 ug/ml.
Test [33] deals with Scl-70 (UniProt P11387). Briefly: AtheNA, Ab 25 ug/ml.
Sequence of Scl-70 (P11387 whole entry): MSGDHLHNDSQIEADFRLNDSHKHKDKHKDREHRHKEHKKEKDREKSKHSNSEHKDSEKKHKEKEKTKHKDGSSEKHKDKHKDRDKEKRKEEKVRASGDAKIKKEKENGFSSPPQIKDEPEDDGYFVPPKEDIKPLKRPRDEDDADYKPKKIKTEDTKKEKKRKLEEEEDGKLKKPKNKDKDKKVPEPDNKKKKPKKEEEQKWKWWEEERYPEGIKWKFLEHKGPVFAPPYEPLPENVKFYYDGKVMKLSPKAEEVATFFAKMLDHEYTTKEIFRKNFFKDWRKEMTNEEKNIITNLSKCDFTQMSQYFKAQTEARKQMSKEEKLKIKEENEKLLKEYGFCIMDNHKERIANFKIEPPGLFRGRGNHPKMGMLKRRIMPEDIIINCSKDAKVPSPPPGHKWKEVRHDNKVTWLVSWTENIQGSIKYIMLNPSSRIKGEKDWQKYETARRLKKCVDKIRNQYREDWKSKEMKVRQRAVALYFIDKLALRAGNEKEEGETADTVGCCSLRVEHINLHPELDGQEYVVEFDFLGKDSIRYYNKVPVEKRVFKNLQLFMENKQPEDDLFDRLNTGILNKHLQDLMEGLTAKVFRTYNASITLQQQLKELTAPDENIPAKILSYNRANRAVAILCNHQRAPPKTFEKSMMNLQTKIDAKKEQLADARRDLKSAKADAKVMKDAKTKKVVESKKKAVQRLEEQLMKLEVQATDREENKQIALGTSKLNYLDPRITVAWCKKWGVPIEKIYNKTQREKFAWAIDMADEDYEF
For test [34], the target named is Sm (Smith antigen). Briefly: AtheNA, Ab 25 ug/ml.
Test [35] deals with Centromere B (UniProt P07199). The test is described as follows: AtheNA, Ab 12.5 ug/ml.
Sequence of Centromere B (P07199 whole entry): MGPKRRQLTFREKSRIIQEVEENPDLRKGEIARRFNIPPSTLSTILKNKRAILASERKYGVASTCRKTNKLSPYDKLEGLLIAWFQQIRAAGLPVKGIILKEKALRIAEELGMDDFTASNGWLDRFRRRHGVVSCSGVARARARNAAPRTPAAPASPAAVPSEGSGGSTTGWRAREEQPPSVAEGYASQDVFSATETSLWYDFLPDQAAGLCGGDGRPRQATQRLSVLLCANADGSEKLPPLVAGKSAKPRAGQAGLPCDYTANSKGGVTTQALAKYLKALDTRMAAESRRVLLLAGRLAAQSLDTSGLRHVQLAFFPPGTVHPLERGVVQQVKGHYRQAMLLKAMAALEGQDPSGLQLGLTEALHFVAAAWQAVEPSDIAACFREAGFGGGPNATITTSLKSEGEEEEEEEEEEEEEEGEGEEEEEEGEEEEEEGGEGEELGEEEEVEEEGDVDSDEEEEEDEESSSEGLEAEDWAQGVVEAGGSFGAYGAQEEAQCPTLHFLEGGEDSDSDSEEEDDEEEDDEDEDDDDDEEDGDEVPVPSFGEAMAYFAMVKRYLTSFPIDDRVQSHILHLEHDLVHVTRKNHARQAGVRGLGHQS
Test [36] deals with Histones. Briefly: AtheNA, Ab 12.5 ug/ml.
Test [37] has as its target Jo-1 (UniProt P12081). Briefly: AtheNA, Ab 12.5 ug/ml.
In test [38] the target is RNP (ribonucleoprotein). The test is described as follows: AtheNA, Ab 12.5 ug/ml.
For test [39], the target named is SSA. Briefly: AtheNA, Ab 12.5 ug/ml.
Test [40] concerns the target SSB (UniProt P05455). The test is described as follows: AtheNA, Ab 12.5 ug/ml.
Test [41] has as its target Scl-70 (UniProt P11387). Briefly: AtheNA, Ab 12.5 ug/ml.
Test [42] deals with Sm (Smith antigen). Briefly: AtheNA, Ab 12.5 ug/ml.
For test [43], the target named is Centromere B (UniProt P07199). The test is described as follows: AtheNA, Ab 6.25 ug/ml.
Test [44] concerns the target Histones. The test is described as follows: AtheNA, Ab 6.25 ug/ml.
The target of test [45] is Jo-1 (UniProt P12081). Briefly: AtheNA, Ab 6.25 ug/ml.
Sequence of Jo-1 (P12081 whole entry): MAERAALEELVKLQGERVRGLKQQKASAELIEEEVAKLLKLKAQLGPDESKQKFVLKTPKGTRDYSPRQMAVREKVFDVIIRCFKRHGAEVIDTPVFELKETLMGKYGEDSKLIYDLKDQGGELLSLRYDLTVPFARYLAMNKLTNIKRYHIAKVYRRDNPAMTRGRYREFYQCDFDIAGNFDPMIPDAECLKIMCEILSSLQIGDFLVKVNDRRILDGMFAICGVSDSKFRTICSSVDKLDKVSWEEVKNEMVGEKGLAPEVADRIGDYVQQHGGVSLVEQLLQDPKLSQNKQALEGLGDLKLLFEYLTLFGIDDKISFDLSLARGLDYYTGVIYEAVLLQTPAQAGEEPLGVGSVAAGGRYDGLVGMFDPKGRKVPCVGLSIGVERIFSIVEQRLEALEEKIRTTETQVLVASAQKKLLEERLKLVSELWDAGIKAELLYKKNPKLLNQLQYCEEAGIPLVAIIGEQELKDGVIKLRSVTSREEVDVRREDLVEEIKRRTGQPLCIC
In test [46] the target is RNP (ribonucleoprotein). Briefly: AtheNA, Ab 6.25 ug/ml.
The target of test [47] is SSA. The test is described as follows: AtheNA, Ab 6.25 ug/ml.
Test [48] addresses SSB (UniProt P05455). Briefly: AtheNA, Ab 6.25 ug/ml.
In test [49] the target is Scl-70 (UniProt P11387). The test is described as follows: AtheNA, Ab 6.25 ug/ml.
Test [50] has as its target Sm (Smith antigen). Briefly: AtheNA, Ab 6.25 ug/ml.

Sequence of SSB (P05455 whole entry): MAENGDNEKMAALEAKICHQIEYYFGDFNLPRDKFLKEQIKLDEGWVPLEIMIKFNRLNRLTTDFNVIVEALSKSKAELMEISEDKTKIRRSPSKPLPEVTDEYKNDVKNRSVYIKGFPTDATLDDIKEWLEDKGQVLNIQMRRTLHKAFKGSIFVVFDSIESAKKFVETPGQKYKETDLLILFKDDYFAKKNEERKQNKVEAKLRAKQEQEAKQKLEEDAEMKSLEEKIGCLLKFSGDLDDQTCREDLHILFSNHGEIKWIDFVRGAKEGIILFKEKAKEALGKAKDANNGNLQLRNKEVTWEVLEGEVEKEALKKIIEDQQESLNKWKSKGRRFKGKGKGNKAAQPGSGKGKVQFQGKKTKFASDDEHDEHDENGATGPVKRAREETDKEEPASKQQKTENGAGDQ

As for CH103 (antibody), the LogAUC in test [1] came to 13.2; in [2], 13.4; in test [3], 13.3; in test [4], 11.4; in test [5], 9.84; in test [6], 11.1. In addition, the LogAUC was 11.6 in test [7], 12.2 in test [8], 13.1 in test [9] and 11.5 in test [10].
Usually Kd stands for the constant that tells how readily two partners part at equilibrium. In general, kon refers to the second-order rate constant of association. A high value points to faster complex formation. In the case of CH103 UCA (antibody), the LogAUC in test [11] was 4.3; in test [12], 0; in [13], 0.33; in test [14] it was 0; in test [15] it was 0; in test [1], 1.35. Moreover, the LogAUC in test [2] was found to be 2.62; in test [3], 1.74; in test [4], 0; in test [5], 0; in test [6], 0.44; in [7] it was 0.12. The LogAUC in [8] amounted to 0; in [9], 5.23; in test [10], 0. In test [16], this substance gave a Kd of 0.227 µM. The substance also yielded a kon in [16] of 37000 M⁻¹ s⁻¹.
For the substance CH104 (antibody), the LogAUC is 11.7 in test [1]; 12 in test [2]; 11.3 in test [3]; 11.2 in test [4]; 9.02 in test [5]; 9.73 in test [6]. For the same substance, the LogAUC in [7] was 10.8; in test [8], 10.8; in [9] it was 11.6; in test [10], 10.1.
As to CH235 IA3 (antibody), the LogAUC in [11] is 5.09; in [17], 0.08; in test [18] it was 0; in [19] it was 0.11; in test [20], 0; in [21], 7.01. The LogAUC is 0 in test [22]; 0 in test [23]; 0 in test [24]; 2.96 in test [25]; 0 in [26]; 0 in test [12]. Further, the LogAUC in test [13] is 2.72; in [14], 1.16; in test [15], 0. In addition, the AtheNA signal (relative luminescence units) in [27] is 27; in test [28], 12; in test [29], 8; in test [30], 7; in [31] it was 10; in test [32], 9. Further, the AtheNA signal (relative luminescence units) was determined as 4 in test [33]; 13 in test [34]; 15 in test [35]; 7 in [36]; 3 in test [37]; 5 in [38]. Besides, the AtheNA signal (relative luminescence units) in test [39] worked out at 12; in test [40], 6; in test [41], 3; in test [42], 12; in test [43], 9; in test [44], 5. Besides, the AtheNA signal (relative luminescence units) in test [45] worked out at 2; in [46], 4; in test [47], 12; in [48], 3; in test [49], 2; in test [50] it was 7.
As usually defined, the koff is the first-order rate constant of dissociation. A lower koff goes with slow dissociation. Take CH235 IA4 (antibody): the LogAUC came out at 0 in test [11]; 0.12 in test [17]; 0 in [18]; 0 in [19]; 0 in test [20]; 1.36 in test [21]. Besides, the LogAUC in [22], in test [23], in test [24], in test [25], in [26] and in test [12] was 0 in each case. Also, the LogAUC came out at 0 in test [13], 0.24 in test [14] and 0 in [15]. Besides, the AtheNA signal (relative luminescence units) in [27] was 10; in [28] it was 9; in test [29], 2; in test [30] it was 5; in test [31] it was 12; in [32], 4. The AtheNA signal (relative luminescence units) in [33] came to 2; in test [34] it was 12; in test [35], 5; in test [36] it was 6; in [37], 3; in [38], 4. For the same substance, the AtheNA signal (relative luminescence units) is 11 in test [39]; 3 in [40]; 2 in test [41]; 6 in test [42]; 5 in test [43]; 4 in test [44]. Also, the AtheNA signal (relative luminescence units) in [45] came to 4; in [46], 3; in test [47], 11; in [48], 5; in [49] it was 2; in [50], 6. The substance also showed a Kd in test [16] of 30.6 µM. This substance displayed a koff in test [16] of 0.0881 s⁻¹. The kon in test [16] is 2900 M⁻¹ s⁻¹.
Consider CH235UA/293i (antibody), for which the AtheNA signal (relative luminescence units) in test [27] amounted to 3; in test [28], 3; in [29], 5; in test [30], 4; in [31], 9; in [32], 3. The AtheNA signal (relative luminescence units) stood at 3 in test [33]; 6 in test [34]; 3 in test [35]; 4 in test [36]; 5 in test [37]; 3 in [38]. Besides, the AtheNA signal (relative luminescence units) in test [39] turned out to be 9; in test [40], 4; in test [41], 3; in [42] it was 6; in [43], 2; in test [44] it was 2. In addition, the AtheNA signal (relative luminescence units) in [45] came to 3; in test [46], 2; in [47] it was 10; in test [48] it was 5; in test [49] it was 3; in test [50], 5.
